In patent US20250163162A1 one finds pSTAT3 (MFI) in CD4 T cells, pSTAT3 (MFI) in CD8 T cells and pSTAT3 (MFI) in monocytes data, which are given here for two molecules.

The experiment has as its target T1, IL10Rα and IL2Rγ on human primary cells (CD8 T cells, CD4 T cells, monocytes) (human) (UniProt Q13651).
T1 sequence (looked up) 1: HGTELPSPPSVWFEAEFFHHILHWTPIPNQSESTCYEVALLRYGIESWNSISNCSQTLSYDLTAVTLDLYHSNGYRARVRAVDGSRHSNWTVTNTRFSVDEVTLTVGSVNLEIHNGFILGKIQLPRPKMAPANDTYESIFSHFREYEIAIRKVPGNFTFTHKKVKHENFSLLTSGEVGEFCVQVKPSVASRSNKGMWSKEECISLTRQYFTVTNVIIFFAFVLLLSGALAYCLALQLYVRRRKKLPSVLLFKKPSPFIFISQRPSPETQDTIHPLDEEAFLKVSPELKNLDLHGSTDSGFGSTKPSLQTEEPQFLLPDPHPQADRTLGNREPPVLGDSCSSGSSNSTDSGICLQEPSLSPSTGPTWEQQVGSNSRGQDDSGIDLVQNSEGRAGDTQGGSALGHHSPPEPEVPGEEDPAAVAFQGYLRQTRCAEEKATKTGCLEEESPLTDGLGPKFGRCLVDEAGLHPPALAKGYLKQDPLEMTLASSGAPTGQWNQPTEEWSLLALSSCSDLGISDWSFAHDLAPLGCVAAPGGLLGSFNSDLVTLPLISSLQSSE
T1 sequence (looked up) 2: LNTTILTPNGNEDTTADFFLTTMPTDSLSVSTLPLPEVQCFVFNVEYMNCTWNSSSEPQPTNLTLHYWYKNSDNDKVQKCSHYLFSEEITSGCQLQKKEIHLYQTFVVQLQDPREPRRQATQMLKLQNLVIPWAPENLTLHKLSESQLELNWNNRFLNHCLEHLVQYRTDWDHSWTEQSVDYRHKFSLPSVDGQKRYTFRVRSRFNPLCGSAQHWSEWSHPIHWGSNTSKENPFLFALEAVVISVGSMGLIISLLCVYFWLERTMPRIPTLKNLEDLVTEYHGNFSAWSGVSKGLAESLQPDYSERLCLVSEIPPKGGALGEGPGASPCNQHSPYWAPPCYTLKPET
Briefly: cell-based or functional assay.

B1: hIL10Ra_VHH14-hIL2Rg_VHH19, linker GGGSGGGS, tag his (bispecific antibody, not shown: small tags and cut ends)
chain: QVQLQESGGGSVQAGGSLRLSCGASGYTYSSYCMGWFRQVPGKEREGVAVIDSDGSTSYADSVKGRFTISKDNGKNTLYLQMNSLKPEDTAMYYCAADLGHYRPPCGVLYLGMDYWGKGTQVTVSSGGGSGGGSQVQLQESGGGSVQAGGSLRLSCTASGFTFDDREMNWYRQAPGNECELVSTISSDGSTYYADSVKGRFTISQDNAKNTVYLQMDSVKPEDTAVYYCAADFMIAIQAPGAGCWGQGTQVTVSS
Molecule B1 returned a pSTAT3 (MFI) in CD4 T cells at 0.0001 µM of 10700 MFI, a pSTAT3 (MFI) in CD4 T cells at 0.0013 µM of 12000 MFI, a pSTAT3 (MFI) in CD4 T cells at 0.01 µM of 9550 MFI and a pSTAT3 (MFI) in CD4 T cells at 0.1 µM of 11300 MFI. Also, the pSTAT3 (MFI) in CD4 T cells at 1 µM turned out to be 12700 MFI, the pSTAT3 (MFI) in CD4 T cells at 10 µM worked out at 13200 MFI, the pSTAT3 (MFI) in CD4 T cells at 100 µM was determined as 11600 MFI and the pSTAT3 (MFI) in CD8 T cells at 0.0001 µM turned out to be 7060 MFI. Moreover, the pSTAT3 (MFI) in CD8 T cells at 0.001 µM is 7520 MFI, the pSTAT3 (MFI) in CD8 T cells at 0.01 µM was determined as 6330 MFI, the pSTAT3 (MFI) in CD8 T cells at 0.1 µM amounted to 7070 MFI and the pSTAT3 (MFI) in CD8 T cells at 1 µM turned out to be 7870 MFI. The same molecule showed a pSTAT3 (MFI) in CD8 T cells at 10 µM of 8430 MFI, a pSTAT3 (MFI) in CD8 T cells at 100 µM of 7970 MFI, a pSTAT3 (MFI) in monocytes at 0.0001 µM of 4670 MFI and a pSTAT3 (MFI) in monocytes at 0.001 µM of 4820 MFI. In addition, the pSTAT3 (MFI) in monocytes at 0.01 µM stood at 4360 MFI, the pSTAT3 (MFI) in monocytes at 0.1 µM came to 4420 MFI, the pSTAT3 (MFI) in monocytes at 1 µM is 4760 MFI and the pSTAT3 (MFI) in monocytes at 10 µM amounted to 4880 MFI. For the same molecule, the pSTAT3 (MFI) in monocytes at 100 µM worked out at 4620 MFI.

B2: hIL10Ra_VHH14-hIL2Rg_VHH19, linker …, tag his (bispecific antibody, not shown: small tags and cut ends)
chain: QVQLQESGGGSVQAGGSLRLSCGASGYTYSSYCMGWFRQVPGKEREGVAVIDSDGSTSYADSVKGRFTISKDNGKNTLYLQMNSLKPEDTAMYYCAADLGHYRPPCGVLYLGMDYWGKGTQVTVSSGGSGGSGGSGQVQLQESGGGSVQAGGSLRLSCTASGFTFDDREMNWYRQAPGNECELVSTISSDGSTYYADSVKGRFTISQDNAKNTVYLQMDSVKPEDTAVYYCAADFMIAIQAPGAGCWGQGTQVTVSS
B2 came in with a pSTAT3 (MFI) in CD4 T cells at 0.0001 µM of 12800 MFI, a pSTAT3 (MFI) in CD4 T cells at 0.001 µM of 11800 MFI, a pSTAT3 (MFI) in CD4 T cells at 0.01 µM of 11100 MFI and a pSTAT3 (MFI) in CD4 T cells at 0.1 µM of 10200 MFI. The pSTAT3 (MFI) in CD4 T cells at 1 µM is 9970 MFI, the pSTAT3 (MFI) in CD4 T cells at 10 µM worked out at 11400 MFI, the pSTAT3 (MFI) in CD4 T cells at 100 µM was 10300 MFI and the pSTAT3 (MFI) in CD8 T cells at 0.0001 µM is 7840 MFI. This molecule yielded a pSTAT3 (MFI) in CD8 T cells at 0.001 µM of 7520 MFI, a pSTAT3 (MFI) in CD8 T cells at 0.01 µM of 6920 MFI, a pSTAT3 (MFI) in CD8 T cells at 0.1 µM of 6780 MFI and a pSTAT3 (MFI) in CD8 T cells at 1 µM of 6480 MFI. Further, the pSTAT3 (MFI) in CD8 T cells at 10 µM is 7330 MFI, the pSTAT3 (MFI) in CD8 T cells at 100 µM was 6930 MFI, the pSTAT3 (MFI) in monocytes at 0.0001 µM worked out at 4230 MFI and the pSTAT3 (MFI) in monocytes at 0.001 µM was determined as 4710 MFI. Further, the pSTAT3 (MFI) in monocytes at 0.01 µM was found to be 4700 MFI, the pSTAT3 (MFI) in monocytes at 0.1 µM is 4690 MFI, the pSTAT3 (MFI) in monocytes at 1 µM came out at 4620 MFI and the pSTAT3 (MFI) in monocytes at 10 µM was found to be 4550 MFI. The same molecule gave a pSTAT3 (MFI) in monocytes at 100 µM of 4860 MFI.
